Ends that are not written are not given here.
Assays:
HLA-A2 = HLA-A2 (Homo sapiens, UniProt P04439, D140Y/D185E/D98H/E176V/E277Q/G131W/G231S/I119V/I121R/I166T/I218V/L300P/L318F/N151K/N90K/P208A/P217A/Q86G/Q94H/R138H/R169H/T345S); test: T2 binding assay: stabilization of HLA-A2 expression by TEM8 peptides; conditions: for expression of HLA-A2 on T2 cells over baseline levels: baseline T2 + DMSO, TEM8 207-215 10 ug/ml, TEM8 298-306 40 ug/ml (FIG. 9)
patients with CaP [1] = conditions: in vivo
patients with CaP [2] = test: Toxicity graded by NIH Common Terminology Criteria for Adverse Events v3.0
HLA-A201 = biological target: T1, HLA-A201 (Homo sapiens, UniProt P04439, D140Y/D185E/D98H/E176V/E277Q/G131W/G231S/I119V/I121R/I166T/I218V/L300P/L318F/N151K/N90K/P208A/P217A/Q86G/Q94H/R138H/R169H/T345S); test: Peptide-binding assay on T2 cells (PSA peptide)
T1 construct: stabilize the expression of HLA-A2 on antigen-processing defective T2 cell line; host or cells: T2 cells
Procedure: The antigen-processing defective cell line, T2, was used to assay peptide binding to HLA-A201 as previously detailed [Xue et al., Prostate 30(2): 73-8 (1997)]. Briefly, T2 cells (5×10^5/well) were pulsed with PSA-peptide or DMSO at the designated concentration and cultured in 24-well plates overnight (18 hours) at 37° C. in 5% CO2 atmosphere. HLA-A2 expression was measured by flow cytometry using FITC conjugated anti HLA-A2 antibody (clone BB7.2) from BD Biosciences (San Diego, Calif.).

[3] = format: physicochemical
Procedure: Identified candidate peptides were synthesized (Protein Laboratory, Research Resources Facility, University of Illinois, Chicago) at greater than 95% purity, dissolved in dimethylsulphoxide (DMSO) at a concentration of 5 mg/ml and stored at −20° C. Peptides were tested for their ability to stabilize the expression of HLA-A2 on antigen-processing defective T2 cell line (ATCC, Manassas, Va.) as previously described [Xue et al., Prostate 1997; 30:73-78]. Briefly, 5×10^5 T2 cells in RPMI 1640 medium containing 10% fetal bovine serum (BioWhitaker, Walkersville, Md.) were incubated with varying amounts (1 to 80 ug/ml) of TEM8 peptide or control HIV-RT476-484 peptide, and cultured in 24 well plates for 18 hours at 37° C. HLA-A2 expression was visualized by direct staining with FITC conjugated MA2.1 antibody or an isotype control (BD Biosciences, San Diego, Calif.) followed by analysis on a FC500 flow cytometer (Beckman Coulter, Miami, Fla.).
TEM8 is known to share 60% sequence homology within the extracellular integrin-like-I domain region with another protein called capillary morphogenesis protein 2 (CMG2) that is widely expressed in normal tissues [Chen et al., J Biol. Chem. 2007 Mar. 30; 282(13):9834-45. Epub 2007 Jan 24]. […] Three remaining peptides were tested in T2 binding assays. […]

Row | Molecule | T2 binding (HLA-A2) | expression of HLA-A2 on T2 cells over baseline levels (HLA-A2) | other results
1 | TLNEKPFSV [TEM8 266-274, 9-mer HLA-A0201 peptide of Tumor Endothelial Marker-8] | No | did not | –
2 | CC(C)C[C@H](NC(=O)[C@H](CC(=O)O)NC(=O)[C@@H](NC(=O)[C@H](CS)NC(=O)[C@H](CCC(N)=O)NC(=O)[C@H](CC(C)C)NC(=O)[C@@H](N)CCCCN)C(C)C)C(=O)N[C@@H](Cc1c[nH]cn1)C(=O)N[C@H](C(=O)O)C(C)C [PSA146-154 peptide] | – | – | treatment related grade 3/4 toxicities (patients with CaP [1]): no treatment related grade 3/4 toxicities; late safety (patients with CaP [2]; after six to eight years of monitoring): no late safety concerns or deleterious sequelae; reactions at the site of injection (patients with CaP [2]; all patients under protocol-1 (intradermal peptide + GM-CSF)): Mild pain, itching, and erythema with or without induration
3 | SMNDGLSFI [TEM8 298-306, 9-mer HLA-A0201 peptide of Tumor Endothelial Marker-8] | Yes | showed enhanced expression of HLA-A2 over baseline levels | –
4 | CALPERPSLYTKVVHYRKWIK [PSA210-230 peptide, long chain synthetic peptide corresponding to PSA residues 210-230] | – | – | HLA-A201 binding capacity (HLA-A201): binds with high affinity in a concentration dependent fashion
5 | ALQGIIHSI [TEM8 207-215, 9-mer HLA-A0201 peptide of Tumor Endothelial Marker-8] | Yes | showed enhanced expression of HLA-A2 over baseline levels | binding affinity in comparison to HIV-RT 476-484 (HLA-A2; control HLA-0201 binding peptide): greater binding affinity
6 | FLLLALALL [TEM8 331-339] | – | – | solubility in DMSO [3]: insoluble in DMSO

— patent US8557777B2, “Methods for treating cancer using prostate specific antigen and tumor endothelial marker peptides” (The Board of Trustees of the University of Illinois, priority 2010, dated 2013)
